*1 amine or outer side, *2 acyl side, *3 side chain or, on linkers, in order; H or OH if unused. Primed or numbered codes have the meaning given here. Where no end group is shown, it is not given here. [ ]: non-standard residue; d: D form. Y(Me) = COc1ccc(C[C@H](N[*:1])C(=O)[*:2])cc1; Pip′ = 4-methylpiperazine; βAla = NCCC(=O)O Some results are limits rather than exact numbers.

The Kd is a measure of binding affinity in units of concentration.

The target of assay [1] is T1, recombinant His-tagged full-length ERG (UniProt P11308 1-479, biotinylated with NHS-PEG4 biotin for the OctetRED assays).
T1 construct: mature; Baculovirus expression in SF9 cells, Ni-NTA purified; also called wild-type ERG; wtERG; not shown: His tag
T1 sequence (looked up): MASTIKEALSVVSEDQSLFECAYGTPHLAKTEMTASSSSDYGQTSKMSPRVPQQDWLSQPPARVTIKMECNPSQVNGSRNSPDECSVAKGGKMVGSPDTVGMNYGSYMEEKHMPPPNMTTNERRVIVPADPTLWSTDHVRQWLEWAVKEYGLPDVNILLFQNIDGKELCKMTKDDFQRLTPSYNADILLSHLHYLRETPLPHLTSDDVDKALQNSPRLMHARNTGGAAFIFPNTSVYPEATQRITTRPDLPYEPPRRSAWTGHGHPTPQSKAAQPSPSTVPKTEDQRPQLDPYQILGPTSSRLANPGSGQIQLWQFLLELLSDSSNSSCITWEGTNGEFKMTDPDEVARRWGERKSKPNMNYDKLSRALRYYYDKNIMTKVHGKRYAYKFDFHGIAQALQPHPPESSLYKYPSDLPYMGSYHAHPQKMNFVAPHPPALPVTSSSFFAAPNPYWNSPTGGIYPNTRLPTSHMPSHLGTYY
The assay can be described thus: OctetRED; Kd table of synthetic peptides on ERG.

Assay [2] deals with T1, recombinant His-tagged full-length ERG. The experiment in a line: Kd table of synthetic peptides on ERG; assay not given.
The target is the same in assay [3]. The description is as above. This is another data set of the same source.
Experimental: (§1) The interaction coefficients between ERG and synthetic peptides or peptidomimetics were determined by biolayer interferometry technology using the Octet Red system (ForteBio). Purified ERG and GUS proteins were biotinylated by EZLink NHS-PEG4 Biotinylation Kit (Thermo Scientific) following the manufacturer's protocol and any unincorporated biotin was removed from the reactions with Zeba 2 ml desalt columns (Thermo). Biotinylated proteins (500 μg/ml) were then incubated with super streptavidin biosensors in binding buffer (20 mM HEPES pH 7.4, 150 mM NaCl), blocked with 10 μg/ml biocytin and washed three times in binding buffer. Peptides were serially diluted in binding buffer, mixed with the protein-coupled biosensors and peptidomimetic:protein association/dissociation was monitored for 10 min at 25° C. Nonspecific binding from the signal obtained from peptidomimetic:GUS interactions was subtracted from that of peptidomimetic:ERG interactions and baseline signal drift was controlled by monitoring immobilized ERG without peptide. Octet Red analysis software was used to analyze the data.
Assay [4] has the same target. The assay is described as above. This is another data set of the same source.
Experimental: as §1
Assay [5] has the same target. The assay can be described thus: OctetRED BLI, biotinylated ERG on streptavidin sensors.
Experimental: as §1
Assay [6] shares this target. The experiment in a line: OctetRED biolayer interferometry, biotinylated ERG on streptavidin sensors, peptide in solution.
Experimental: as §1
Assay [7] concerns the target T2, TMPRSS2:ERG gene fusion product, endogenous in VCaP cells (UniProt P11308 33-479, limits assumed).
T2 construct: In cell lysates, in cells or in xenograft tumors; also called endogenous ERG; VCaP ERG
T2 sequence (looked up): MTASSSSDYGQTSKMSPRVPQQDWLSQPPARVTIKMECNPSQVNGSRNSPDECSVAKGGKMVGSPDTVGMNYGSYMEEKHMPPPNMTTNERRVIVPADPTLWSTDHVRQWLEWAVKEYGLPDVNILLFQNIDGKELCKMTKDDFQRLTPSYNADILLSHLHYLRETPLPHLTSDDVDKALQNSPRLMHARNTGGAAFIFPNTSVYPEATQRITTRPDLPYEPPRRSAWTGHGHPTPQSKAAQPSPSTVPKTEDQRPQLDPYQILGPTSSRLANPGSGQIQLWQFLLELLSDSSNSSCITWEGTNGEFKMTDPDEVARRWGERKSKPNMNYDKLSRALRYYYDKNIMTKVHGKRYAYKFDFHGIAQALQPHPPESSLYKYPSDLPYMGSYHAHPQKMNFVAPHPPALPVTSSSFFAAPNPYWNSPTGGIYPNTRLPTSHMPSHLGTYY
The assay can be described thus: pull-down of VCaP lysate with biotinylated peptide, ERG immunoblot.
Experimental: Approximately 1 mg of soluble VCaP cell lysate prepared in RIPA buffer (Invitrogen) was incubated with varying amounts of biotinylated peptides for 2 hours at 4° C. HaloLink agarose beads (20 μl) were added to the peptide-lysate mixture and incubated for an additional 4 hours. Beads were then pelleted by centrifugation, washed three times in PBS-T and loaded into an SDSPAGE gel followed by Western blot analysis. Total VCaP cell lysate was loaded for positive control.

For assay [8], the target named is T1, recombinant His-tagged full-length ERG. The assay can be described thus: Kd table of synthetic peptides on ERG; assay not given. The source holds these as a separate data set.
The target is the same in assay [9]. The experiment in a line: OctetRED BLI.
The target is the same in assay [10]. The experiment in a line: OctetRED BLI, alanine substitution peptides of TAT-EIP1.

B1: 5PT-A (peptide)
peptide: Ac-PYLFT-NH2
notes: also called Ac-PYLFT-NH2
As to B1, the Kd in [1] worked out at 5.15 µM.

B2: 4PL-A (Ac-PPYL-NH2) (peptide)
peptide: Ac-PPYL-NH2
notes: also called capped 4-mer peptide PPYL
With B2, the Kd in assay [2] was found to be 1.4 µM.

B3: 4PL-3F (peptide)
peptide: [Pip′]PPFL-NH2
notes: also called Pip-PPFL-NH2
With B3, in [3], the dissociation constant (Kd) was 3.9 µM.

B4: 4PL-4A (peptide)
peptide: [Pip′]PPYA-NH2
notes: also called Pip-PPYA-NH2
For B4, in assay [3], the equilibrium dissociation constant (Kd) was determined as 7.9 µM.

B5: PPYE peptide (mutation of PPYL to PPYE) (peptide)
peptide: PPYE
modifications: not fully specified
Regarding B5, the binding result in assay [4] is “no binding”.

B6: 4PL-4F (peptide)
peptide: [Pip′]PPYF-NH2
notes: also called Pip-PPYF-NH2
Turning to B6, the binding result in assay [3] is given as “no binding”.

B7: 4PL-4D (peptide)
peptide: [Pip′]PPYD-NH2
notes: also called Pip-PPYD-NH2
As to B7, the Kd in assay [3] turned out to be 14.8 µM.

B8: 7-mer LPPYLFT capped at the N-terminus only (Ac-LPPYLFT) (peptide)
peptide: Ac-LPPYLFT-OH
notes: Variant inferred from the sentence on capping
For B8, in assay [2], the dissociation constant (Kd) amounted to 2.8 µM.

B9: 6LF-A (peptide)
peptide: Ac-LPPYLF-NH2
notes: also called Ac-LPPYLF-NH2
For B9, the Kd in assay [1] was more than 100 µM.

B10: 4PL-Pip2 (peptide)
peptide: [Pip′][βAla][βAla]PPYL-NH2
modifications: not fully specified
notes: also called Pip-βAβA-PPYL-NH2
As to B10, the Kd in assay [4] worked out at 3 µM.

B11: 6LF-N (peptide)
peptide: H-LPPYLF-NH2
notes: also called H2N-LPPYLF-NH2
For the molecule B11, in assay [1], the dissociation constant Kd is 4.88 µM.

B12: 4PL-3Y(Me) (peptide)
peptide: [Pip′]PP[Y(Me)]L-NH2
notes: also called Pip-PPY(Me)L-NH2
As for B12, the Kd in assay [3] worked out at 15.5 µM.

B13: synthetic peptide MTFGTLP (peptide)
peptide: MTFGTLP
Consider B13, for which the dissociation constant Kd in assay [5] stood at 4.6 µM.

B14: synthetic peptide YTFGTLP (peptide)
peptide: YTFGTLP
For B14, the Kd in assay [5] was 3.2 µM.

B15: muEIP2 synthetic peptide LSAGSAP (peptide)
peptide: LSAGSAP
notes: Alanine substitution control
As to B15, the binding result in [6] is recorded as “no binding (tested: 20 µM)”.

B16: biotinylated muEIP2 peptide (peptide)
peptide: LSAGSAP
modifications: also: biotin, position not given here
notes: also called biotin-muEIP2; mutant EIP2 (muEIP2)
B16: the binding result in assay [7] was “no binding (tested: 20 µM)”.

B17: 5PT-N (NH2-PYLFT-NH2) (peptide)
peptide: H-PYLFT-NH2
As for B17, the dissociation constant (Kd) in assay [1] is 1.31 µM.

B18: 6PT-N (peptide)
peptide: H-PPYLFT-NH2
notes: also called H2N-PPYLFT-NH2
In the case of B18, in assay [1], the dissociation constant (Kd) is 11.5 µM.

B19: synthetic peptide LRFGTLP (peptide)
peptide: LRFGTLP
Turning to B19, the dissociation constant Kd in assay [5] was 7.9 µM.

B20: LPPYLFT with 4-methylpiperazine (Pip) added (peptide)
peptide: LPPYLFT
modifications: not fully specified (N-terminus)
notes: also called more soluble version of EIP1
As for B20, in assay [4], the Kd amounted to 1.7 µM.

B21: 5LL-N (peptide)
peptide: H-LPPYL-NH2
notes: also called H2N-LPPYL-NH2
On to B21, for which, in [1], the Kd worked out at 9.6 µM.

B22: 4PL-N (peptide)
peptide: H-PPYL-NH2
notes: also called H2N-PPYL-NH2
B22: the Kd in assay [2] is 94.2 µM; in [1], more than 100 µM.

B23: synthetic peptide FSASSPA (peptide)
peptide: FSASSPA
For the molecule B23, in assay [5], the Kd came out at 21.1 µM.

B24: 5LL-A (peptide)
peptide: Ac-LPPYL-NH2
notes: also called Ac-LPPYL-NH2
Consider B24, for which, in assay [1], the Kd turned out to be 12.4 µM.

B25: EIP1 synthetic peptide LPPYLFT (peptide)
peptide: LPPYLFT
On to B25, for which the Kd in assay [8] was 0.972 µM; in assay [5] it was 0.6 µM; in assay [2], 2.8 µM.

B26: 7LT-4W (peptide)
peptide: Ac-LPPWLFT-NH2
notes: also called Ac-LPPWLFT-NH2
On to B26, for which the Kd in [8] was more than 100 µM.

B27: 7LT-4H (peptide)
peptide: Ac-LPPHLFT-NH2
notes: also called Ac-LPPHLFT-NH2
As to B27, in assay [8], the Kd is more than 100 µM.

B28: 7LT-4D (peptide)
peptide: Ac-LPPDLFT-NH2
notes: also called Ac-LPPDLFT-NH2
Consider B28, for which the Kd in [8] was more than 100 µM.

B29: 7LT-4F (peptide)
peptide: Ac-LPPFLFT-NH2
notes: also called Ac-LPPFLFT-NH2
As for B29, the Kd in assay [8] is more than 100 µM.

B30: 6PT-A (peptide)
peptide: Ac-PPYLFT-NH2
notes: also called Ac-PPYLFT-NH2
For the molecule B30, the Kd in assay [1] came out at 3.64 µM.

B31: TAT-EIP1 cell-permeable peptide (peptide)
peptide: LPPYLFTGGRKKRRQRRRG
modifications: not fully specified
notes: also called FITC-labeled TAT-EIP1
For B31, in [9], the Kd was 0.68 µM.

B32: TAT-EIP1 with Y to A substitution (peptide)
peptide: LPPALFTGGRKKRRQRRRG
notes: also called Y→A
In the case of B32, the “fold increase in Kd against parental TAT-EIP1” value in assay [10] was more than 100 fold.

B33: TAT-EIP1 with P2 to A substitution (peptide)
peptide: LAPYLFTGGRKKRRQRRRG
notes: also called P^2→A
For B33, the “fold increase in Kd against parental TAT-EIP1” value in assay [10] was more than 100 fold.

B34: PPYL with 4-methylpiperazine (Pip) added (peptide)
peptide: [Pip′]PPYL
modifications: not fully specified
notes: also called more soluble version of 4PL-A
For B34, in assay [4], the Kd was 3.3 µM.

B35: 5PF-A (peptide)
peptide: Ac-PPYLF-NH2
notes: also called Ac-PPYLF-NH2
Take B35: the Kd in [1] was 9.44 µM.

B36: EIP2 synthetic peptide LSFGSLP (peptide)
peptide: LSFGSLP
For the molecule B36, in [5], the Kd is 1.8 µM.

B37: synthetic peptide FSFGSLP (peptide)
peptide: FSFGSLP
In the case of B37, the dissociation constant Kd in [5] amounted to 2.1 µM.

B38: synthetic peptide LTFGSLP (peptide)
peptide: LTFGSLP
For the molecule B38, the Kd in assay [5] turned out to be 2.9 µM.

B39: synthetic peptide LSFGTFP (peptide)
peptide: LSFGTFP
For the molecule B39, the dissociation constant (Kd) in [5] amounted to 9.2 µM.

B40: synthetic peptide LAFGSLP (peptide)
peptide: LAFGSLP
Consider B40, for which the Kd in assay [5] was 6.4 µM.

B41: synthetic peptide LSFGSFP (peptide)
peptide: LSFGSFP
In the case of B41, in assay [5], the dissociation constant (Kd) came to 12.5 µM.

B42: synthetic peptide FTFGSLP (peptide)
peptide: FTFGSLP
As to B42, in assay [5], the Kd stood at 3.9 µM.

B43: 5PF-N (peptide)
peptide: H-PPYLF-NH2
notes: also called H2N-PPYLF-NH2
As for B43, in [1], the Kd stood at 10.2 µM.

B44: TAT-EIP2 cell-permeable peptide (peptide)
peptide: LSFGSLPGGRKKRRQRRRG
Take B44: the Kd in assay [9] is 1.11 µM.

The values are drawn from patent US20180273595A1 (REGENTS OF THE UNIVERSITY OF MICHIGAN, published 2018).
